Assay results taken from patent publication US20060275301A1 (Chugai, published 2006).

Biological target: T1, β2 microglobulin (human, UniProt P61769 21-119)
T1 construct: β2M alone, as a denatured band on a Western blot; also called 12 kD molecule
Test: Western blot

binding result: no binding
B1: 2D7 antibody (antibody, V domains shown)
VH: QVQLQQSGPELVKPGASVKMSCKASGYTFTDYFIHWVKQRPGQGLEWIGWIFPGDDTTDYNEKFRGKTTLTADKSSSTAYILLSSLTSEDSAMYFCVRSDDFDYWGQGTTLTVSS
VL: QIVLTQSPAIMSASPGEKVTITCSASSSVSYMHWFQQKPGTFPKLWIYSTSNLASGVPTRFSGSGSGTSYSLTISRMEAEDAATYYCQQRTSYPPTFGSGTKLEIK
notes: CDR1 starts at 50 and 46, so these ranges probably include the leader, but no cleavage site is stated
